Positions count from the first letter of the chain named.
Tests used:
rat mu opioid receptor [1] = molecular target: T1, rat mu opioid receptor (Rattus norvegicus, UniProt P33535, N150A); assay: SRE-Luc/Gq5i luciferase reporter assay in HEK293 cells; format: cell-based
T1 construct: expressed in transfected cells; host or cells: HEK293
Method: (§1) Reagents & Solutions: The cell culture media used in the assays described below was Gibco BRL #12100-046. This media was made according to manufacturer's recipe, pH adjusted to 7.2, filtered (0.22 micron pore), and supplemented with 1% Pen/Strep (Gibco #15140-122; 100% penicillin G 10,000 units/ml, and streptomycin 10,000 μg/ml) and 10% fetal bovine serum. Cell culture media lacking 10% fetal bovine serum was also generated. DNA used in the transfection experiments was purified and quantitated by measuring the absorbance at OD260. A LucLite Luciferase Assay Kit (Packard) was used to quantitate luciferase activity. Transfections were carried out using LipofectAMINE Reagent (Gibco #18324-012).
(§2) Constitutive activity of the Asn150Ala mutant rat mu opioid receptor was assessed using a luciferase assay. The rat mu opioid receptor is a Gαi coupled receptor. Therefore we chose to use the Gq5i reporter system, described in detail above (Broach and Thorner, supra), which switches the signaling pathway from Gαi to Gαq for reliable positive readout. HEK293 cells were transfected with the reporter construct SRE-Luc, an expression vector containing nucleic acid encoding Gq5i (Broach and Thorner, supra), and an expression vector containing nucleic acid encoding either the wild-type or the Asn150Ala mutant rat mu opioid receptor. Basal and ligand-stimulated luciferase activity was measured. The ligand used in this assay was [D-Ala^2-MePhe^4, Gly-ol^5]enkephalin] (DAMGO). As a negative control, HEK293 cells were transfected with pcDNA1 (empty vector DNA), SRE-Luc, and the expression vector containing nucleic acid encoding Gq5i (Broach and Thorner, supra).
(§3) The luciferase assay was carried out as follows. On day 1, HEK293 cells in a T75 flask were washed with 15 ml serum-free media (or PBS), trypsinized with 5 ml 0.05% trypsin-EDTA (Gibco #25300-062), incubated at 37° C. for 3 minutes at which time 6-7 ml complete HEK293 media (Gibco #12100-046) and 10% Fetal Bovine Serum (Intergen #1050-90) were added. Thereafter, cells were collected in 50 ml centrifuge tubes, pelleted at 800-900 rpm (RCF ˜275), and resuspend in 20 ml complete media. The cells were counted using a haemocytometer and diluted to 85,000 cells/ml in complete media. Using a repeat pipettor or cell plater, 100 μl of cells were added to each well of a Primaria 96-well plate (Falcon #353872). Cells were then incubated at 37° C., 5% CO2 until use at 48 hours.
(§4) On day 3, cells were transfected using LipofectAMINE™ according to the manufacturer's protocol (Gibco #18324-012, Rockville, Md.).
(§5) On day 4, cells were stimulated as follows. Ligands for the receptor, either DAMGO or a non-peptide ligand (e.g., naltrexene or nalonin), were diluted to a desired concentration in serum-free media containing 0.15 mM PMSF (or other protease inhibitor(s)). The transfection media was then completely removed from cells and 50-100 μl stimulation media (i.e., media containing candidate ligands or the corresponding ligand free solvent) was added to each well. The cells were incubated for the desired time (standard is overnight) at 37° C., 5% CO2, although the optimal stimulation time may vary depending on the particular receptor used. The optimal incubation time may be determined systematically by testing a range of incubation times and determining which one yields the highest level of stimulation. For concomitant assessment of two ligands (e.g., ligand induced inhibition of forskolin stimulated CRE activity) each stimulus is prepared at two times the desired final concentration and mixed in equal volumes prior to addition to cells.
(§6) On day 5, an assay for luciferase expression was carried out according to the manufacturer's instructions (Packard, Meridin, Conn.)

rat mu opioid receptor [2] = assay: as above; format: cell-based; settings: HEK293, SRE + Gq5i; for Average Ligand Stimulated Activity (Light Emission): ligand DAMGO; for Average Basal Activity (Light Emission): no ligand
Method: as §1, §2, §3, §4, §5, §6

rat mu opioid receptor [3] = molecular target: T1, rat mu opioid receptor; assay: CRE-Luc luciferase reporter assay with forskolin stimulation; format: cell-based; settings: 0.5 μM forskolin; a decrease means more Gαi signaling
Source text: Similarly, a constitutively active rat mu opioid receptor was identified using a reporter construct sensitive to Gαi coupling (see FIG. 3). The response element employed in this assay was the cAMP-response element (CRE), which is sensitive to Gαi mediated changes in intracellular levels of cAMP. Signaling through the rat mu opioid receptor via Gαi inhibits adenylate cyclase, causing a decrease in intracellular cAMP. Therefore, an increase in rat mu opioid receptor signaling induces a decrease in CRE mediated reporter activity.
Prior to the present invention, Gαi-mediated decreases in intracellular cAMP were measured by (1) stimulating cells with forskolin, which causes receptor-independent activation of adenylate cyclase and generates an intracellular pool of cAMP; (2) stimulating the cells with ligand; and (3) measuring the ligand-induced, receptor-dependent Gαi-mediated decrease in the intracellular cAMP pool (e.g., using a radioimmunoassay (e.g., New England Nuclear, Boston, Mass.)). […] The basal (and ligand-induced) level of receptor activity was then measured using a standard luciferase assay (see FIG. 3). Coexpression of the receptor of interest with a luciferase reporter gene construct allows one to measure light emission as a readout for basal signaling.

CCK-BR [4] = molecular target: T2, CCK-BR (Homo sapiens, UniProt P32239, L325E); set-up: expressed in transfected cells; host or cells: COS-7; settings: COS-7, absence of agonist; cited from earlier work
T2 sequence (P32239 1-447 L325E): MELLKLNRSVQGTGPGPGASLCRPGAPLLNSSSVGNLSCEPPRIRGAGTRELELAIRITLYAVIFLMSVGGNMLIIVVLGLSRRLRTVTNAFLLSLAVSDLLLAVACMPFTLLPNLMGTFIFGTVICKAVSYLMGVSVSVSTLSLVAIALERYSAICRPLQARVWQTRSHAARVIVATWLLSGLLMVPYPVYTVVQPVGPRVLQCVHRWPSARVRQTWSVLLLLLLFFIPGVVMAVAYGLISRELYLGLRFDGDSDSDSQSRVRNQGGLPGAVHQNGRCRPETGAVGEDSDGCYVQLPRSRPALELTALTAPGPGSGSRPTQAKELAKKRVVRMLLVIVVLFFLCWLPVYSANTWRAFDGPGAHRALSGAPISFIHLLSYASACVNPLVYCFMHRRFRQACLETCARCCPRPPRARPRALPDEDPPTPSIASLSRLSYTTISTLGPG

CCK-BR [5] = molecular target: T2, CCK-BR; assay: SMS-Luc luciferase reporter assay in HEK293 cells; format: cell-based; set-up: expressed in transfected cells; host or cells: HEK293; settings: FIG. 2
Source text: HEK293 cells were transfected (as described above) with SMS-Luc and an expression vector encoding any one of pcDNA1, wild-type CCK-BR, or Leu325Glu CCK-BR.

B1: Asn150Ala rat mu opioid receptor: rat mu opioid receptor with Asn to Ala point mutation at position 150 of SEQ ID NO: 1 (protein, UniProt P33535 1-398, looked up, variant N150A)
Mu-type opioid receptor: MDSSTGPGNTSDCSDPLAQASCSPAPGSWLNLSHVDGNQSDPCGLNRTGLGGNDSLCPQTGSPSMVTAITIMALYSIVCVVGLFGNFLVMYVIVRYTKMKTATNIYIFNLALADALATSTLPFQSVNYLMGTWPFGTILCKIVISIDYYAMFTSIFTLCTMSVDRYIAVCHPVKALDFRTPRNAKIVNVCNWILSSAIGLPVMFMATTKYRQGSIDCTLTFSHPTWYWENLLKICVFIFAFIMPVLIITVCYGLMILRLKSVRMLSGSKEKDRNLRRITRMVLVVVAVFIVCWTPIHIYVIIKALITIPETTFQTVSWHFCIALGYTNSCLNPVLYAFLDENFKRCFREFCIPTSSTIEQQNSTRVRQNTREHPSTANTVDRTNHQLENLEAETAPLP
- basal activity relative to the maximal level of ligand-stimulated second messenger signaling (rat mu opioid receptor [1]): exceeded 50%
- stimulation of basal level activity (increase in basal activity vs wild-type) (rat mu opioid receptor [1]; HEK293, SRE + Gq5i, listed as Asn150Ala mutant mu opioid receptor): approximately 6.5 fold
- Average Ligand Stimulated Activity (Light Emission) (rat mu opioid receptor [2]): 86,996
- Average Basal Activity (Light Emission) (rat mu opioid receptor [2]): *56,498
- basal CRE-Luc reporter activity compared to wild-type receptor (rat mu opioid receptor [3]): reduction in basal activity

B2: wild-type rat mu opioid receptor: wild-type rat mu opioid receptor expressed from an expression vector in HEK293 cells (protein, UniProt P33535 1-398, looked up)
Mu-type opioid receptor: B1 Mu-type opioid receptor with A150N
- Average Ligand Stimulated Activity (Light Emission) (rat mu opioid receptor [2]): 87,461
- Average Basal Activity (Light Emission) (rat mu opioid receptor [2]): 8,436

B3: Leu325Glu CCK-BR mutant: human CCK-BR with point mutation Leu325Glu, constitutively active (protein, UniProt P32239 1-447, looked up, variant L325E)
Gastrin/cholecystokinin type …: T2 sequence (P32239 1-447 L325E)
- constitutive production of inositol phosphates (CCK-BR [4]): levels exceeding wild-type CCK-BR
- basal level activity compared to wild-type CCK-BR (CCK-BR [5]): increased basal level activity

From patent US20020127539A1, “Assays for identifying receptors having alterations in signaling” (priority 2000, published 2002)
